Measured values reported in patent US7544481 (REGENTS OF THE UNIVERSITY OF MICHIGAN, dated 2009).

B1: GSTCD40T (GST fused to the native CD40 cytoplasmic domain) (other, human, UniProt P25942 216-277, looked up)
chain: KKVAKKPTNKAPHPKQEPQEINFPDDLPGSNTAAPVQETLHGCQPVTQEDGKESRISVQERQ
notes: range 216-279; Immobilized on glutathione-agarose beads; also called native CD40 (GSTCD40T); not shown: glutathione S-transferase of the vector pGSTag
B2: cytoplasmic domain of the p55 TNF receptor (amino acids 206-426) fused to the DNA-binding domain of GAL4 (other, UniProt P04386 1-147, looked up)
chain: MKLLSSIEQACDICRLKKLKCSKEKPKCAKCLKNNWECRYSPKTKRSPLTRAHLTEVESRLERLEQLFLLIFPREDLDMILKMDSLQDIKALLTGLFVQDNVNKDAVTDRLASVETDMPLTLRQHRISATSSSEESSNKGQRQLTVSRYQRWKSKLYSIVCGKSTPEKEGELEGTTTKPLAPNPSFSPTPGFTPTLGFSPVPSSTFTSSSTYTPGDCPNFAAPRREVAPPYQGADPILATALASDPIPNPLQKWEDSAHKPQSLDTDDPATLYAVVENVPPLRWKEFVRRLGLSDHEIDRLELQNGRCLREAQYSMLATWRRRTPRREATLELLGRVLRDMDLLGCLEDIEEALCGPAALPPAPSLLR
notes: The numbering probably counts on the mature receptor; also called pTNFR
B3: CD40bp fused to the activation domain of GAL4 (other, not shown: large carriers)
chain: MESSKKMDSPGALQTNPPLKLHTDRSAGTPVFVPEQGGYKEKFVKTVEDKYKCEKCHLVLCSPKQTECGHRFCESCMAALLSSSSPKCTACQESIVKDKVFKDNCCKREILALQIYCRNESRGCAEQLMLGHLVHLKNDCHFEELPCVRPDCKEKVLRKDLRDHVEKACKYREATCSHCKSQVPMIALQKHEDTDCPCVVVSCPHKCSVQTLLRSELSAHLSECVNAPSTCSFKRYGCVFQGTNQQIKAHEASSAVQHVNLLKEWSNSLEKKVSLLQNESVEKNKSIQSLHNQICSFEIEIERQKEMLRNNESKILHLQRVIDSQAEKLKELDKEIRPFRQNWEEADSMKSSVESLQNRVTELESVDKSAGQVARNTGLLESQLSRHDQMLSVHDIRLADMDLGFQVLETASYNGVLIWKIRDYKRRKQEAVMGKTLSLYSQPFYTGYFGYKMCARVYLNGDGMGKGTHLSLFFVIMRGEYDALLPWPFKQKVTLMLMDQGSSRRHLGDAFKPDPNSSSFKKPTGEMNIASGCPVFVAQTVLENGTYIKDDTIFIKVIVDTSDLPDP
notes: Prey from a human B-cell cDNA library; also called CD40bp (yeast prey, pACT)

Legend:
[1] = biological target: [35S]methionine-labeled luciferase protein (UniProt P08659 1-550 = luciferase, limits assumed, [35S]methionine label); assay: GST pull-down of in vitro translated 35S-labeled protein, autoradiography
Chain of [35S]methionine-labeled luciferase protein (P08659 whole entry, the tested form may be a part): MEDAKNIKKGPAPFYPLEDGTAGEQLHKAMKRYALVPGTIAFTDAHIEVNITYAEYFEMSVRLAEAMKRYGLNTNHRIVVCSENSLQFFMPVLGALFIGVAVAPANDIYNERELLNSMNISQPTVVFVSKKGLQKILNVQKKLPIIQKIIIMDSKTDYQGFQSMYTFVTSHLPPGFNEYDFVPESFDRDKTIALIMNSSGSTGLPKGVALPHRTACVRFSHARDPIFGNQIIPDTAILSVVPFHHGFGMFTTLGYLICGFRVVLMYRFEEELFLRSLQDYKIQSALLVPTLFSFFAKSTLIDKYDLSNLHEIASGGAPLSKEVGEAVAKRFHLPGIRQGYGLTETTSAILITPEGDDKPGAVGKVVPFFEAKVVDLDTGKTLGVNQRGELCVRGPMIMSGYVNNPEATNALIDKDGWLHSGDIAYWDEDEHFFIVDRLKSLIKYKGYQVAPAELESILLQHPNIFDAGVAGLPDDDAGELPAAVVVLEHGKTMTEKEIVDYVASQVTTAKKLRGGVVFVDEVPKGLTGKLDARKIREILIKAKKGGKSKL
Protocol: GST Fusion Protein Expression and In Vitro Binding Assay—Native (CD40T) and mutant (CD40A) CD40 sequences used in the construction of the yeast bait vectors were excised and subcloned into the glutathione S-transferase ("GST") fusion protein vector pGSTag (as described in Ron et al. (1992) *BioTechniques* 13:866-869) and transformed into the *Escherichia coli* strain BL21 […] pLysS (as described in Studier et al. (1991) *J. Mol. Bio.* 219:37-44). GST and GST fusion proteins were prepared using published procedures of Studier et al. (1991) supra, and the recombinant proteins were immobilized onto glutathione-agarose beads at a concentration of about 8 mg/ml (as described in Harper et al. (1993) supra).
Figure 2: FIGS. 2A and 2B show the interaction of in vitro translated CD40bp with GST fusion proteins. [^35S]Methionine-labeled CD40bp or luciferase protein as control was incubated with GST alone, GSTCD40T (native CD40 cytoplasmic domain), or GSTCD40A (mutant CD40 cytoplasmic domain $Thr^234 \rightarrow Ala$). Following incubation and washing, GST beads were boiled in SDS-sample buffer and resolved on a 10% acrylamide gel, and bound protein was visualized by autoradiography.

[2] = biological target: B3; assay: yeast two-hybrid cotransformation, beta-galactosidase filter assay
Source text: (§1) Yeast Two-hybrid Screen—Using a modification of the method of Harper et al. (1993) *Cell* 75:805-816, a hybrid gene encoding the GAL4 DNA-binding domain (amino acids 1-147), hemagglutinin ("HA") epitope tag, and CD40 cytoplasmic region (amino acids 216-279) was constructed in the yeast bait vector pAS1CYH2. This construct was designated GAL4CD40, and expression of the fusion protein was confirmed by anti-HA immunoblotting. This bait plasmid was cotransformed with a human B-cell cDNA expression library (prey) fused to the activation domain of GAL4 in the pACT plasmid. Interaction between bait- and prey-encoded genes in the Y190 yeast strain reconstitutes GAL4 as an active transcriptional complex, allowing growth in the absence of histidine and activation of the β-galactosidase reporter gene. Thirty-six of the 10^6 transformants screened grew in the absence of histidine and had detectable β-galactosidase staining within 10 minutes of incubation with the chromogenic substrate 5-bromo-4-chloro-3-indolyl β-D-galactoside. […] Cotransformation assays were repeated in the yeast Y190 strain, where CD40bp fused to the activation domain of GAL4 was cotransformed with native CD40 (pCD40T) or the indicated heterologous baits expressed as fusions with the DNA-binding domain of GAL4. […]

[3] = biological target: yeast Ser-Thr kinase SNF1 fused to the DNA-binding domain of GAL4 (yeast, UniProt P04386 1-147; P06782 1-633, limits assumed); assay: as above
Source text: as §1

Binder: B1
- binding result [1]: no binding

Binder: B2
- binding result [2]: no binding

Binder: B3
- binding result [3]: no binding
